The term IC50 denotes the concentration that gives 50% inhibition. The low end stands for greater potency, the high end for weaker potency.

Test [1] has as its target HLA-DR molecule encoded by the allele DRB1*0701 (human). The test is described as follows: competition ELISA vs biotinylated YKL. On the technique in general: In an ELISA, binding on a coated surface is turned into a signal by an enzyme label.
In test [2] the target is HLA-DR molecule encoded by the allele DRB4*0101 (human). The experiment in a line: competition ELISA vs biotinylated E2/E168.
Test [3] addresses HLA-DR molecule encoded by the allele DRB1*1501 (human). The experiment in a line: competition ELISA vs biotinylated A3 152-166.
Test [4] deals with HLA-DR molecule encoded by the allele DRB1*0101 (human). The experiment in a line: competition ELISA vs biotinylated HA 306-318.
The target of test [5] is HLA-DR molecule encoded by the allele DRB1*0401 (human). The experiment in a line: competition ELISA vs biotinylated HA 306-318.
The target in test [6] is HLA-DR molecule encoded by the allele DRB5*0101 (human). The test is described as follows: competition ELISA vs biotinylated HA 306-318.

Turning to “Nef4 peptide (positions 66-94 of the HIV-1 Nef protein, Bru strain) (from UniProt P03406 66-94) (peptide; other documents disagree on this pair)”, the IC50 is 5000 nM in test [1]; 225 nM in test [2]; 750 nM in test [3]; 55 nM in test [4]; 45 nM in test [5]; 12 nM in test [6].

For the substance “Nef4.1 peptide (positions 66-80 of the HIV-1 Nef protein, Bru strain) (from UniProt P03406 66-80) (peptide; other documents disagree on this pair)”, in test [4], the half-maximal inhibitory concentration (IC50) was 1500 nM.

Turning to “Nef4.2 peptide (positions 68-82 of the HIV-1 Nef protein, Bru strain) (from UniProt P03406 68-82) (peptide; other documents disagree on this pair)”, the values for the concentration for half-maximal inhibition (IC50) in test [3] and in test [4] were 7000 nM and 250 nM, respectively.

For the substance “Nef4.3 peptide (positions 72-86 of the HIV-1 Nef protein, Bru strain) (from UniProt P03406 72-86) (peptide; other documents disagree on this pair)”, the half-inhibitory concentration (IC50) amounted to 2430 nM in test [2]; 1930 nM in test [3]; 2000 nM in test [4]; 2000 nM in test [5]; 1500 nM in test [6].

As for “Nef4.4 peptide (positions 74-88 of the HIV-1 Nef protein, Bru strain) (from UniProt P03406 74-88) (peptide; other documents disagree on this pair)”, the IC50 in test [2] stood at 550 nM; in test [3] it was 667 nM; in test [4], 350 nM; in test [5] it was 225 nM; in test [6], 700 nM.

Regarding “Nef4.5 peptide (positions 77-91 of the HIV-1 Nef protein, Bru strain) (from UniProt P03406 77-91) (peptide; other documents disagree on this pair)”, the IC50 was 1330 nM in test [3], 12 nM in test [4], 60 nM in test [5] and 28 nM in test [6].

For the substance “Nef4.6 peptide (positions 79-93 of the HIV-1 Nef protein, Bru strain) (from UniProt P03406 79-93) (peptide; other documents disagree on this pair)”, the half-inhibitory concentration (IC50) in test [4] was found to be 55 nM; in test [5] it was 150 nM; in test [6], 45 nM.

For the origin of these results see patent publication US20040115622A1.
